This is an account of results in article PMC2900545.

Substrate in this data set: CCc1c2c(nc3ccc(O)cc13)-c1cc3c(c(=O)n1C2)COC(=O)[C@]3(O)CC
In words: purified protein. The settings on record: UDPGA.

B1: UGT1A1 (Homo sapiens) (protein)
chain: HAGKILLIPVDGSHWLSMLGAIQQLQQRGHEIVVLAPDASLYIRDGAFYTLKTYPVPFQREDVKESFVSLGHNVFENDSFLQRVIKTYKKIKKDSAMLLSGCSHLLHNKELMASLAESSFDVMLTDPFLPCSPIVAQYLSLPTVFFLHALPCSLEFEATQCPNPFSYVPRPLSSHSDHMTFLQRVKNMLIAFSQNFLCDVVYSPYATLASEFLQREVTVQDLLSSASVWLFRSDFVKDYPRPIMPNMVFVGGINCLHQNPLSQEFEAYINASGEHGIVVFSLGSMVSEIPEKKAMAIADALGKIPQTVLWRYTGTRPSNLANNTILVKWLPQNDLLGHPMTRAFITHAGSHGVYESICNGVPMVMMPLFGDQMDNAKRMETKGAGVTLNVLEMTSEDLENALKAVINDKSYKENIMRLSSLHKDRPVEPLDLAVFWVEFVMRHKGAPHLRPAAHDLTWYQYHSLDVIGFLLAVVLTVAFITFKCCAYGYRKCLGKKGRVKKAHKSKTH
B1: the Km amounted to 2.5 ± 0.3 µM.
